The results in this text go back to PMC7515728, “YdiV regulates Escherichia coli ferric uptake by manipulating the DNA-binding ability of Fur in a SlyD-dependent manner” (Nucleic Acids Research, 2020).

For orientation: stoichiometry N means the number of molecules, sites or subunits per partner or assembly. What is called Kd is a measure of binding affinity in units of concentration.

The target in series [1] is Fur in the bacterial two-hybrid plasmid pUT18C-fur (Escherichia coli) (UniProt P0A9A9). The series is described as follows: two-hybrid; bacterial two-hybrid by reconstitution of adenylate cyclase (T18/T25) in E. coli BTH101; LB-X-Gal plates and β-galactosidase assay (Miller method).
Series [2] concerns the molecule itself. The series is described as follows: SEC; Superdex 200, 10 mM Tris-HCl pH 8.0, 100 mM NaCl, proteins at 100-200 uM, 4°C; 62 kDa and 27 kDa proteins as markers.
A further series addresses T1, Fur P18AYdiV (Escherichia coli, UniProt P0A9A9 1-148, P18A).
T1 sequence: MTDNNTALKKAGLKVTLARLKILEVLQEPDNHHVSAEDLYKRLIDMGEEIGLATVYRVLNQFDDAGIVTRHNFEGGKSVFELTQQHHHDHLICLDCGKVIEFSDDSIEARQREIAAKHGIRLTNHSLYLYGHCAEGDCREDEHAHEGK
The series can be described thus: EMSA; 100 uM MnCl2; 30 uM protein; EMSA: 10 mM Tris-HCl pH 7.5, 1 mM MgCl2, 40 mM KCl, 0.1 mg/ml BSA, 5% glycerol, +/-100 uM MnCl2, 25 nM DNA, 37 C 15 min; FP: 10 mM Tris-HCl pH 7.5, 75 mM NaCl. Conditions: protein: recombinant; tags: N-terminal His (PreScission-cleavable, removed if necessary); chain copies: 2; label: FAM; blunt.

In a further series the target is T2, Fur P29A (Escherichia coli, UniProt P0A9A9 1-148, P29A).
T2 sequence: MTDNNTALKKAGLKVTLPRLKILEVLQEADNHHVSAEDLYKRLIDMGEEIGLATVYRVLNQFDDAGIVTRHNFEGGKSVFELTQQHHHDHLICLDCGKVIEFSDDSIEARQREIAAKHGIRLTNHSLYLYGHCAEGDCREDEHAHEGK
The series is described as above. Conditions: protein: recombinant; tags: N-terminal His (PreScission-cleavable, removed if necessary); chain copies: 2; label: FAM; blunt.

A further series addresses T3, Fur P18A (Escherichia coli, UniProt P0A9A9 1-148, P18A).
T3 sequence: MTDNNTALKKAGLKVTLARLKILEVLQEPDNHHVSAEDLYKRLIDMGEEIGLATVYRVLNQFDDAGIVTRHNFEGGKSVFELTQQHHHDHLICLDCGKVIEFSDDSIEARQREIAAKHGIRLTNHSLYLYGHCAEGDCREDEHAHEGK
The description is as above. The following applies: protein: recombinant; tags: N-terminal His (PreScission-cleavable, removed if necessary); chain copies: 2; label: FAM; blunt.

The target in another series is T4, Fur P18ASlyD (Escherichia coli, UniProt P0A9A9 1-148, P18A).
T4 sequence: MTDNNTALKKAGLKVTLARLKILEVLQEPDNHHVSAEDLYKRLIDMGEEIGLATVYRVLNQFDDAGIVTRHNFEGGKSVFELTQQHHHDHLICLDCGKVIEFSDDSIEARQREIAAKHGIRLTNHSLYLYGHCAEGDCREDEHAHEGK
Described as above. The following applies: protein: recombinant; tags: N-terminal His (PreScission-cleavable, removed if necessary); chain copies: 2; label: FAM; blunt.

Another series has as its target T5, Zn1Fur (Escherichia coli, UniProt P0A9A9 1-148).
T5 sequence: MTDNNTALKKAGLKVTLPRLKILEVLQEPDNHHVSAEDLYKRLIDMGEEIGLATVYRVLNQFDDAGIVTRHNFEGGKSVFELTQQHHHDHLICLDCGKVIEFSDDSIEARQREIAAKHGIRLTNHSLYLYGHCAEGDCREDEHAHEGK
The series is described as follows: FP; EDTA-treated Fur, no Mn2+ added; EMSA: 10 mM Tris-HCl pH 7.5, 1 mM MgCl2, 40 mM KCl, 0.1 mg/ml BSA, 5% glycerol, +/-100 uM MnCl2, 25 nM DNA, 37 C 15 min; FP: 10 mM Tris-HCl pH 7.5, 75 mM NaCl. Conditions: protein: recombinant; tags: N-terminal His (PreScission-cleavable, removed if necessary); chain copies: 2; label: FAM; blunt. In general terms: Mobility shift assays separate free from complexed probe on a gel.

With “SlyD in the bacterial two-hybrid plasmid pKNT25-slyD (from UniProt P0A9K9 1-196) (natural protein)”, the interaction strength relative to the negative control (β-galactosidase) (times the negative control) in series [1] is 6.

“YdiV in the bacterial two-hybrid plasmid pKNT25-ydiV (from UniProt P76204 1-237) (natural protein)” gave an interaction strength relative to the negative control (β-galactosidase) (times the negative control) in series [1] of 3.

B1: native Fur protein (ferric uptake regulator, overexpressed without YdiV) (natural protein, Escherichia coli, UniProt P0A9A9 1-148, looked up)
chain: MTDNNTALKKAGLKVTLPRLKILEVLQEPDNHHVSAEDLYKRLIDMGEEIGLATVYRVLNQFDDAGIVTRHNFEGGKSVFELTQQHHHDHLICLDCGKVIEFSDDSIEARQREIAAKHGIRLTNHSLYLYGHCAEGDCREDEHAHEGK
notes: Ferric uptake regulator Fur, Escherichia coli, from plasmid pGL01fur; In the pull-down for mass spectrometry Fur was held on Ni-NTA by its N-terminal His-tag and then released by PreScission cleavage; printed mass 17 089 Da per monomer; also called Zn1Fe1Fur; source: E. coli BL21 harboring pGL01fur; in lysate on Ni-NTA (pull-down) and purified (Ni-NTA, Superdex 200); not shown: His-tag, …
For the molecule B1, the “stoichiometry N” value in series [2] worked out at 2.

B2: Fur^YdiV protein (Fur co-expressed with untagged YdiV) (natural protein, Escherichia coli, UniProt P0A9A9 1-148, looked up)
chain: MTDNNTALKKAGLKVTLPRLKILEVLQEPDNHHVSAEDLYKRLIDMGEEIGLATVYRVLNQFDDAGIVTRHNFEGGKSVFELTQQHHHDHLICLDCGKVIEFSDDSIEARQREIAAKHGIRLTNHSLYLYGHCAEGDCREDEHAHEGK
notes: Ferric uptake regulator Fur, Escherichia coli, from plasmid pGL01fur, co-expressed with YdiV; also called Zn1Fe1Fur^YdiV; source: E. coli BL21 harboring pGL01fur and pACYCydiV; in lysate on Ni-NTA (pull-down) and purified (Ni-NTA, Superdex 200); not shown: His-tag, N-terminal, kept
As to B2, the “stoichiometry N” value in series [2] was determined as 2.

B3: Fur box DNA (dsDNA)
DNA 1: GATAATGATAATGATAATGATAATGATAATGA
DNA 2: TCATTATCATTATCATTATCATTATCATTATC
B3: the binding result with Fur P18AYdiV, in the series with Fur P29A, with Fur P18A and with Fur P18ASlyD was “binds” in each case. Also, the Kd in the series with Zn1Fur was found to be 7.2 µM.
